Experimental data from the supplement of paper PMC9732359.
± gives the uncertainty stated by the source.

Assay: protein stability index of a GFP-peptide fusion (yeast GPS) (PSI 1-4); higher = more stable; sorted into four equal gates, so the index is relative within each strain
Outline: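 For each peptide, the protein stability index sums the read frequency in every gate after multiplying it by the gate number. Read frequencies came from plasmids that were PCR-amplified from each gate and Illumina-sequenced, with reads assigned to strains by barcodes. The gates were four equal bins of GFP/Cherry fluorescence ratio applied to mid-log yeast in leucine-free medium carrying a pooled library of tiled 17-residue yeast protein peptides fused downstream of GFP on a Cherry-expressing plasmid.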

Sequence | protein stability index (doa10∆) | protein stability index (pdr5∆) | protein stability index (san1∆) | protein stability index (ubr1∆)
VLEDVYRCFAQLELRQL [RRI2] | 2.15 ± 0.25 | 2.61 ± 0.17 | 2.5 ± 0.12 | 2.67 ± 0.17
VLEFCKDYEAKTKAMSL [POP1] | 3.06 ± 0.045 | 2.67 ± 0.043 | 2.73 ± 0.037 | 3.06 ± 0.031
VLGNSRGVDAGKGNTFE [RPN14] | 2.73 ± 0.25 | 3.01 ± 0.17 | 3.66 ± 0.11 | 3.3 ± 0.12
VLKADRSWNEPSKSQTN [YML103C/NUP188] | 2.93 ± 0.11 | 3.16 ± 0.1 | 2.89 ± 0.097 | 3.27 ± 0.083
VLKVDKRFMNTSQNPQR [BRR2] | 3 ± 0.056 | 3.2 ± 0.06 | 3.21 ± 0.069 | 2.99 ± 0.04
VLKVYSMINNSNQAVGQ [SRB8] | 2.85 ± 0.07 | 2.78 ± 0.065 | 2.83 ± 0.067 | 2.63 ± 0.051
VLQEYRLTKQAFDWVLS [RPO21] | 2.59 ± 0.068 | 2.48 ± 0.069 | 2.89 ± 0.073 | 2.78 ± 0.046
VLRLATNKGPLAQIWLA [MCD1] | 1.93 ± 0.11 | 1.31 ± 0.052 | 1.51 ± 0.15 | 1.17 ± 0.055
VLVGSCAYTGTGDVLLI [RPN1] | 3.13 ± 0.094 | 3.35 ± 0.067 | 3.41 ± 0.13 | 3.1 ± 0.075
VLYQSNATHDEDEFIVQ [SWP82] | 3.05 ± 0.041 | 3.14 ± 0.038 | 3.11 ± 0.039 | 3.151 ± 0.028
VMEIGKDAEYLRNYLTP [PUP1] | 2.85 ± 0.076 | 2.85 ± 0.096 | 2.77 ± 0.086 | 2.85 ± 0.12
VMGTPLTNMMSPMGNAY [PGD1] | 2.03 ± 0.14 | 2.24 ± 0.21 | 1.62 ± 0.18 | –
VMMDVDSSGVNDLHHSE [RPN3] | 3.34 ± 0.082 | 3.31 ± 0.076 | 3.35 ± 0.066 | 3.19 ± 0.054
VNARDIPPLNKSLAMEH [CSN12] | 2.77 ± 0.23 | 2.67 ± 0.17 | 2.61 ± 0.19 | –
VNGSITDQLIQNIETRQ [NUT1] | 3.22 ± 0.079 | 3.01 ± 0.092 | 3.05 ± 0.071 | 3.15 ± 0.042
VNGSPITLVEPEILRFK [RPS16A] | – | 2.79 ± 0.15 | – | 3.36 ± 0.17
VNIVEKDGAKFIEVRNF [RPL9A] | 3.38 ± 0.19 | – | 3.02 ± 0.2 | 1.71 ± 0.24
VNNCIWALKSSLNSMTN [RGR1] | 2.71 ± 0.1 | 2.39 ± 0.22 | – | 2.37 ± 0.16
VNWLAYTYLYVRMLASP [BRR2] | 1.11 ± 0.14 | 1.14 ± 0.18 | 1.31 ± 0.19 | 1.24 ± 0.1
VNYLISNTMYSVRLFSF [YJL039C/NUP192] | 1.43 ± 0.046 | 1.42 ± 0.058 | 1.34 ± 0.088 | 1.6 ± 0.056
VPDSKIRIYDLGKKKAT [RPL10] | 1.24 ± 0.076 | 1.35 ± 0.071 | 1.15 ± 0.13 | 1.05 ± 0.056
VPEFFQTANEKHITVRL [SRP14] | 3.02 ± 0.1 | 2.67 ± 0.11 | 3.01 ± 0.12 | 2.56 ± 0.1
VPGMPAPIKKIIERYIK [PRP8] | 3.37 ± 0.24 | 3.23 ± 0.13 | 2.95 ± 0.11 | 3.16 ± 0.13
VPGPGTKLIQYEHNGRT [CSL4] | 3 ± 0.092 | 3.06 ± 0.058 | 3.25 ± 0.066 | 3.09 ± 0.056
VPIKSSKSGRIFALVFS [RPN13] | 2.57 ± 0.14 | 2.41 ± 0.091 | 2.41 ± 0.096 | 2.63 ± 0.1
VPTLEAKRDYIISRLNA [FAS1] | 3.13 ± 0.087 | 3.35 ± 0.16 | 3.05 ± 0.076 | 3.25 ± 0.071

Sequence | protein stability index (doa10∆) | protein stability index (pdr5∆) | protein stability index (san1∆) | protein stability index (ubr1∆)
VPTVPPSQSEEQKGQMA [MED4] | 2.78 ± 0.12 | 2.82 ± 0.058 | 3 ± 0.067 | 2.6 ± 0.091
VPVKLEEIKTVDPASAP [RRP6] | 2.83 ± 0.13 | 2.56 ± 0.16 | 2.87 ± 0.17 | 2.79 ± 0.11
VQDCRYSLASVTLKGAK [POP1] | 2.35 ± 0.041 | 2.68 ± 0.051 | 2.61 ± 0.04 | 2.56 ± 0.049
VQIKDVNDRYQIPTPNN [CSI1] | 1.72 ± 0.05 | 2.25 ± 0.064 | 1.75 ± 0.12 | 1.73 ± 0.049
VQISNIPDIGDLPDTEG [PRP8] | 3.24 ± 0.07 | 3.29 ± 0.059 | 3.2 ± 0.049 | 3.23 ± 0.043
VQKSTKTFSYKRPSTFY [RPL20A] | 2.73 ± 0.15 | 3.34 ± 0.084 | 3.06 ± 0.085 | 2.23 ± 0.065
VQLRYGDYDSHDISRYV [PRP8] | 2.41 ± 0.062 | 2.46 ± 0.064 | 2.69 ± 0.075 | 2.09 ± 0.044
VQLSPSNPQHIIQPFLD [RGR1] | 2.73 ± 0.051 | 2.85 ± 0.062 | 2.51 ± 0.063 | 2.82 ± 0.032
VQNSTLAQLTSKLIPEV [RPS1B] | 2.19 ± 0.084 | 2.73 ± 0.062 | 2.27 ± 0.12 | 2.55 ± 0.047
VQPTIGQLPQLPKLNLP [SNF5] | 3.05 ± 0.044 | 2.75 ± 0.046 | 2.49 ± 0.057 | 3.08 ± 0.043
VQQRYTQSGGVRPFGVS [PRE6] | 2.8 ± 0.22 | – | – | –
VQQSEKLRNEVERIQKM [YIL149C/MLP2] | 3.13 ± 0.13 | 3.42 ± 0.2 | 2.86 ± 0.2 | 3.24 ± 0.12
VQRQIEQQKGQQTAQTQ [SNF5] | 3.41 ± 0.08 | 3.3 ± 0.078 | 3.3 ± 0.061 | 3.07 ± 0.055
VRCVNCSKSIPKDKAIK [RPS26A] | 2.77 ± 0.067 | 3 ± 0.071 | 2.77 ± 0.063 | 2.82 ± 0.044
VRDVAAQDFINAYASFL [RPS19A] | 2.85 ± 0.078 | 2.5 ± 0.092 | 2.96 ± 0.22 | 2.21 ± 0.088
VRFIGDSVAAIGIPVNK [QCR2] | 2.83 ± 0.13 | 2.52 ± 0.16 | 2.4 ± 0.14 | 3.02 ± 0.2
VRKETYSSYIYKVLKQT [HTB2] | 3.08 ± 0.074 | 3.26 ± 0.065 | 3.24 ± 0.051 | 3.12 ± 0.038
VRMRLAQLTHSLRRIRD [MED8] | 1.45 ± 0.041 | 2.04 ± 0.063 | 1.49 ± 0.087 | 1.91 ± 0.049
VRNSFPLDEIPVDVDFN [REC8] | 2.71 ± 0.12 | 2.33 ± 0.096 | 2.57 ± 0.078 | 2.99 ± 0.065
VRQKIKTLKRMIKESST [POP1] | 1.47 ± 0.039 | 1.68 ± 0.052 | 1.45 ± 0.081 | 1.93 ± 0.044
VRVQFQFTGFLLHEMTQ [GRR1] | 1.83 ± 0.067 | 2.08 ± 0.061 | 1.91 ± 0.074 | 1.85 ± 0.053
VSAAEDESLIRELYKYV [PRP28] | 3.27 ± 0.11 | 3.27 ± 0.13 | 2.95 ± 0.084 | 2.94 ± 0.098
VSFDFNGVPGQALDAVR [MED8] | 3.1 ± 0.077 | 3.36 ± 0.079 | 3.32 ± 0.079 | 3.36 ± 0.061
VSIKFTNAAFPFHDPEA [ECM29] | 2.3 ± 0.053 | 2.11 ± 0.053 | 1.91 ± 0.068 | 1.83 ± 0.047
VSKKELYAIKKVTLNKE [BRR2] | 1.73 ± 0.072 | 2.01 ± 0.11 | – | 1.6 ± 0.085
VSLIKKYKLISRIVEIF [YML103C/NUP188] | 1.34 ± 0.054 | 1.94 ± 0.049 | 1.64 ± 0.067 | 1.46 ± 0.054
